Reference: US20060241020

Key:
[1] = target: the GST-peptide (PTP-β clone as GST fusion in the dephosphorylation assay)
[2] = target: T1, AEGELpYGSLYA (Sap1 example phosphopeptide)
T1 chain: AEGELYGSLYA

[3] = target: T2, EFpYGAFA (Sap1 example phosphopeptide, A form of EFpYGAFA/G)
T2 chain: EFYGAFA

[4] = target: T3, EFpYGAFG (Sap1 example phosphopeptide, G form of EFpYGAFA/G)
T3 chain: EFYGAFG

[5] = target: all the clones tested (PTP-Sap1 clones as GST-peptides in the dephosphorylation assay)

Protein | dephosphorylation assay on GST-PEP constructs [1] | Km [2] | Km [3] | Km [4] | dephosphorylation assay on GST-PEP constructs [5]
PTP-β wild type (GST fusion of the catalytic domain) (protein) RQKVSHGRERPSARLSIRRDRPLSVHLNLGQKGNRKTSCPIKINQFEGHFMKLQADSNYLLSKEYEELKDVGRNQSCDIALLPENRGKNRYNNILPYDATRVKLSNVDDDPCSDYINASYIPGNNFRREYIVTQGPLPGTKDDFWKMVWEQNVHNIVMVTQCVEKGRVKCDHYWPADQDSLYYGDLILQMLSESVLPEWTIREFKICGEEQLDAHRLIRHFHYTVWPDHGVPETTQSLIQFVRTVRDYINRSPGAGPTVVHCSAGVGRTGTFIALDRILQQLDSKDSVDIYGAVHDLRLHRVHMVQTECQYVYLHQCVRDVLRARKLRSEQENPLFPIYENVNPEYHRDPVYSRH | the dephosphorylation of the GST-peptide was weak (not shown) as compared to the same experiment on PTP-Sap1 | – | – | – | –
PTP-Sap1 wild type (GST fusion of the catalytic domain) (protein) LKRRNKKKQQKPELRDLVFSSPGDIPAEDFADHVRKNERDSNCGFADEYQQLSLVGHSQSQMVASASENNAKNRYRNVLPYDWSRVPLKPIHEEPGSDYINASFMPGLWSPQEFIATQGPLPQTVGDFWRLVWEQQSHTLVMLTNCMEAGRVKCEHYWPLDSQPCTHGHLRVTLVGEEVMENWTVRELLLLQVEEQKTLSVRQFHYQAWPDHGVPSSPDTLLAFWRMLRQWLDQTMEGGPPIVHCSAGVGRTGTLIALDVLLRQLQSEGLLGPFSFVRKMRESRPLMVQTEAQYVFLHQCILRFLQQSAQAPAEKEVPYEDVENLIYENVAAIQAHKLEV | – | Km=7.6 uM | Km=7.0 uM | Km=7.0 uM | Dephosphorylation assays showed a conserved enzymatic activity for all the clones tested (not shown)
